# Measured values taken from the nanobody polyreactivity screen of Harvey et al. (2022).
# Assay: yeast display, Sf9 membrane polyspecificity reagent, FACS + sequencing; frameworks hold sequencing errors
# Summary of the method: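 Nanobodies from a synthetic yeast display library (Saccharomyces cerevisiae BJ5465), induced 36–48 hours with galactose, were stained 1 hour at 4 °C with 10% biotinylated, detergent-solubilized Sf9 membrane reagent, enriched on streptavidin microbeads, then FACS-sorted. Anti-HA (expression) and streptavidin (reagent binding) fluorescence set low and high (top ~1%) gates. Polyreactivity labels come from the gate of origin. Genes were colony-PCR amplified, MiSeq 2 × 250 sequenced and filtered by CDR length.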
row,Sequence,polyreactivity (PSR sort gate)
1,QVQLVESGGGLVQAGGSLRLSCAASGSTFWKYAMGWYRQAPGKERELVASIRSGGSTYYADSVKGRFTISRDNAKNTVYLQMNSLKPEDTAVYYCAAKSISVGGGVYGYRYYYWGQGTQVTVSS,high polyreactivity
2,QVQLVESGGGLVQAGGSLRLSCAASGSTFWKYIMGWYRQAPGKERELVAAITTRGGSTYADSVKGRFTISRDNAKNTVYLQMNSLKPEDTAVYYWAATKFWYYGYDYWGQGTQVTVSS,low polyreactivity
3,QVQLVESGGGLVQAGGSLRLSCAASGSTFWPYAMGWSRQAPGKERELVARINSGGNTNYADSVKGRFTISRDNAKNTVYLQMNSLKPEDTAVYYCAVRSLYEPRVYYRWVVVDGNYLGQGTQVTVSS,low polyreactivity
4,QVQLVESGGGLVQAGGSLRLSCAASGSTFWPYAMGWYRQAPGKERELVAAINYSSGSTYYADSVKGRFTISRDNAKNTVYLQMNSLKPEDNAVYYCAKGWYAGYPYDYWGQGTQVTVSS,low polyreactivity
5,QVQLVESGGGLVQAGGSLRLSCAASGSTFWPYAMGWYRQAPGKERELVAAITSSGGSTYYADSVKGRFTISRDNAKNTVYLQRNSLKPEDTAVYYCAADWSNLGAYDYWGQGTQVTVSS,low polyreactivity
6,QVQLVESGGGLVQAGGSLRLSCAASGSTFWSNTMGWYRQAPGKERELVASITTSGGRTYYADSVKGRFTISRDNAKNTVYLQMNSLKPEDTAVYYCAAGGRVRRRYGYWGQGTQVTVSS,high polyreactivity
7,QVQLVESGGGLVQAGGSLRLSCAASGSTFWSYAMGWSRQAPGKERELVAAITDSGGSTYYADSVKGRFTISRDNAKNTVYLQLNSLKPEDTAVYYCAVDSRYTAPLRPLGPFDYWGQGTQVTVSS,low polyreactivity
8,QVQLVESGGGLVQAGGSLRLSCAASGSTFWSYAMGWYRQATGKERELVAAITSGGRTYYADSVKGRFTISRDNAKNTVYLQMNCLKAEDTAVYYCAAEGSVGLYGMIMHYWGQGTQVTVSS,high polyreactivity
9,QVQLVESGGGLVQAGGSLRLSCAASGSTFWTNAMAWYRQSPGKERELVATITYSTGTYADSVKGRFTISRDNAKNTVYLQMNSLKPEDTAVYYCAAEVVAQMNYWGQGTQVTVSS,low polyreactivity
10,QVQLVESGGGLVQAGGSLRLSCAASGSTFWTNAMGWYRQAPGKERELVAVISRGGSTNYADSVKGRFTISRDNAKNTVYLQMNSLKPEDTAVYYCAAASYLYGRYYYWGQGTQVTVSS,high polyreactivity
11,QVQLVESGGGLVQAGGSLRLSCAASGSTFWVNVMGWYRQAPGKERELVATITSGGRTNYADSVKGRFTISRDNAKNTVYLQMNSLKPADTAVYDCAADLKRGDLMDYWGQGTQVTVSS,low polyreactivity
12,QVQLVESGGGLVQAGGSLRLSCAASGSTFWVYAMGWYRQAPGKERELVATISRGGSTNYADSVKGRFTISRDNAKNTVYLQMNSLKPEDTAVYYCAAPRFYGYGYEYWGQGTQVTVSS,low polyreactivity
13,QVQLVESGGGLVQAGGSLRLSCAASGSTFWVYTMGWYRQAPGKERELVAAISYGGGRTYYADSVKGRFTISRDNEKNTVYLQMNSLKPEDTAVYYCNKDYWRDVAQDVLDGYEYWGQGTQVTVSS,low polyreactivity
14,QVQLVESGGGLVQAGGSLRLSCAASGSTFWVYTMGWYRQAPGKERELVAAITLNGGSTYYADSVKGRFTISRDNAKNTVYLQMNSLKPEDTAVYYCAAYVFPFDKSYHYVGYDYWGQGTQVTVSS,low polyreactivity
15,QVQLVESGGGLVQAGGSLRLSCAASGSTFWWYAMGWYRQAPGKDRELVAASSYSGSSTYYADSVKGRFTISRDNAKNTVYLQMNSLKPEDTAVYYCAADIQYYYNYYPGDYWGQGTQVTVSS,low polyreactivity
16,QVQLVESGGGLVQAGGSLRLSCAASGSTFWWYAMGWYRQAPGKEREFVAAINWRGSSTYYADSVKGRFTISRDNAKNTVYLQMNSLKPEDTSVYYCNAVLRYGYAGMDYWGQGTQVTVSS,high polyreactivity
17,QVQLVESGGGLVQAGGSLRLSCAASGSTFWYNAMGWYRQAPGKEREFVASISFRSGRTYYADSVKGRFTISRDNAKNTVYLQMNSLKPEDTAVYYCAADYYQYKYDYWGQGTQVTVSS,high polyreactivity
18,QVQLVESGGGLVQAGGSLRLSCAASGSTFWYNAMGWYRQAPGKERELVASITLSGARTYYADSVKGRFTISRDNAKNTVYLQMNSLKPEDTAVYYCAKRTGRVKYYYWGQGTQVTVSS,high polyreactivity
19,QVQLVESGGGLVQAGGSLRLSCAASGSTFWYNAMGWYRQAPGTERELVATITNSGGSTYYADSVKGRFTISRDNAKNTVYLQMNSLKPEDTAVYYCATDVYSGALLKYDYWGQGTQVTVSS,low polyreactivity
20,QVQLVESGGGLVQAGGSLRLSCAASGSTFWYYAMAWYRHAPGKEREMVAAINSDDSTNYADSVKGRFTISRDNAKNTDYLQMNSLKPEDTAVYDCHRGFVYSTTGLWRYYDFDYWGQGTQVTLSS,low polyreactivity
21,QVQLVESGGGLVQAGGSLRLSCAASGSTFWYYAMGWYRQAPGKEREFVAAITTSAGRTYYADSVKGRFTISRDNAKNSVYLQMNSLKPEDTAVYYCAAEPRQYWEYNYWGQGTQVTVSS,high polyreactivity
22,QVQLVESGGGLVQAGGSLRLSCAASGSTFWYYAMGWYRQAPGKERELVAAISRSTGSTYYADSVKGRFTISRDNAKNTVYLQMNSLKPEDTAVYYCNKDPVPSFFIPEIGYSEYDYWGQGTQVTVSS,low polyreactivity

row,Sequence,polyreactivity (PSR sort gate)
1,QVQLVESGGGLVQAGGSLRLSCAASGSTFWYYAMGWYRQAPGKERQLVAAISRNGVSTYYADSVKGRFTISRDIAKNTVYLQMNSMKPEDTAVYYCNVVTKFTGRGYDYWGQGTQVTVSS,high polyreactivity
2,QVQLVESGGGLVQAGGSLRLSCAASGSTFWYYTMGWYRQAPGKERELVAAITESGGGTYYADSVKGRFTISRDNAKNTVYLQMNSLKPEDTAVYYCAAYSRFTSDYWGQGTQVTVSS,high polyreactivity
3,QVQLVESGGGLVQAGGSLRLSCAASGSTFYANAMGWYRQAPGKEREFVADITISGGRTYYADSVKGRFTISRDNAKNTVYLQMNSLKPEDTAVYYWNTRGIFFQSQTHDYWGQGTQVTVSS,low polyreactivity
4,QVQLVESGGGLVQAGGSLRLSCAASGSTFYANAMGWYRQAPGKERELVAAIDSGGTTTYADSVKGRFTISRDNAKNTVYLQMNSLKPEDTAVYYCAADQYWYIWYDYWGQGTQVTVSS,low polyreactivity
5,QVQLVESGGGLVQAGGSLRLSCAASGSTFYAYTMGWYRQAPGKERELVAAITSSGSNTYYADSVKGRFTISRDNAKNTVYLQMNSLKPEDTAVYYCAARITREGYYWGQGTQVTVSS,high polyreactivity
6,QVQLVESGGGLVQAGGSLRLSCAASGSTFYDSAMGWYRQAPGKERELVAAINWSSDTTYYADSVKGRFTISRDNAKNTVYLQMNSLKPEDTAVYYCATDSAYRGYDYWGQGTQVNVSS,low polyreactivity
7,QVQLVESGGGLVQAGGSLRLSCAASGSTFYDYVMGWYRQAPGKERELVAAITGSGGRTYYADSVKGRFTISRDNAKNTVYLQMNSLKPEDTAVYYCAVRVHYNRVYGRYSPRYDYWGQGTQVTVSS,high polyreactivity
8,QVQLVESGGGLVQAGGSLRLSCAASGSTFYENTMGWYRQAPGKERELVAAISVRGGSTYYADSVKGRFTISRDNEKKTVYLQMNRLKPEDTAVYYCAVLDVYRYRMDYSGQGTQVTVSS,low polyreactivity
9,QVQLVESGGGLVQAGGSLRLSCAASGSTFYFYAMGWYRPAPGKERELVAAITYSGGSTYYADSVKGRFTISRDNAKNTVYLQMNSLKPEDTAVYYCAAQWRRHSTRSRYYYWGQGSQVTVSS,high polyreactivity
10,QVQLVESGGGLVQAGGSLRLSCAASGSTFYFYDMGWYRQAPGKERELVATIDDGGGSTYYADSVKGRFTISRDNAKNTVYLQMNSLKPEDTAVYYCNADDSEYLIYDYWGQGTQVTVSS,low polyreactivity
11,QVQLVESGGGLVQAGGSLRLSCAASGSTFYGNAMGWYRQAPGKERELVATIDSTAGTNYADSVKGRFTISRDNAKNTVYLQMNSLKPEDTAVYYCAREYSIYNPPGYLGTVEYDYWGQGTQVTVSS,low polyreactivity
12,QVQLVESGGGLVQAGGSLRLSCAASGSTFYGNAMGWYRQAPGKERELVATISWSGGSTYYADSVKGRFTISRDNAKNTVYLQMNSLKPEDTAVYYCNAEITTKSLVTRYSWYGGDYWGQGTQVTVSS,low polyreactivity
13,QVQLVESGGGLVQAGGSLRLSCAASGSTFYGYALGWYRQAPGKERELVAAITRSGGSTYYADSVKGRFTISRDNAKNTVYLQMNSLKPEDTEVYYCNKYGYKGGVGYDYWGQGTQVTVSS,high polyreactivity
14,QVQLVESGGGLVQAGGSLRLSCAASGSTFYGYAMGWYRQAPGKERELVAAINWSGGRTYYADSVKGRFTISRDNAKNTVYLQMNSLKPEDTAVYYCAARGRYQPQFDYWGQGTQVTVSS,high polyreactivity
15,QVQLVESGGGLVQAGGSLRLSCAASGSTFYHNVMGWYRQAPGKERELVASIYRGGSTYYADSVKGRFTISRDNAKNTVYLQMNSLKPEDTAVYYCAKEYKSLWWDGRMNYWGQGTQVTVSS,low polyreactivity
16,QVQLVESGGGLVQAGGSLRLSCAASGSTFYHYAMGWYRKAPGKERELVAAISTSGGRTYYADSVKGRFTISRDNAKNTVYLQLNSLKPEDTAVYYCAARPGSWFPSVPSYNYWGQGTQVTVSS,low polyreactivity
17,QVQLVESGGGLVQAGGSLRLSCAASGSTFYHYAMGWYRQAPGKERELVAAISTSGGRTYYADSVKGRFTISRDNAKNTVYLQMNSLKPEDTAVYYCAARPGSWYPSVPSYNYWGQGTQVTVSS,low polyreactivity
18,QVQLVESGGGLVQAGGSLRLSCAASGSTFYINAMGWYRQAPGKERELVAAITSGGSTNYADSVKGRFTISRDNAKNTVYLQMNSLKPEDTAVYYCAKVSYYPWRYDYWGQGTQVTVSS,low polyreactivity
19,QVQLVESGGGLVQAGGSLRLSCAASGSTFYINDMGWYRQAPGKERELVASISWRGGSTYADSVKGRFTISRDNAKNTDYLQMNSLKPEDTAVYYCAAEFDVYSHHWITSYDYWGQGTQVTVSS,high polyreactivity
20,QVQLVESGGGLVQAGGSLRLSCAASGSTFYIYAMGWSRQAPGKERELVARISGSGGSTYYADSVKGRFTISRDNAKNTVYLQMNSLKPEDTAVYYCAADDIYKYYQYYAFPYYRYDYWGQGTQVTVSS,low polyreactivity
21,QVQLVESGGGLVQAGGSLRLSCAASGSTFYIYAMGWYRQAPGKERELVAVITRRGGSTSYADSVKGRFTISRDNAKNTVYLQINSLKPEDTAVYYCAAKRTWPDVKYIRYGYWGQGTQVTVSS,high polyreactivity
